Measurements published in US20060168698.

Target: T1, SOS1 (Salt Overly Sensitive 1, plasma membrane Na+/H+ antiporter), Q9LKW9
T1 chain: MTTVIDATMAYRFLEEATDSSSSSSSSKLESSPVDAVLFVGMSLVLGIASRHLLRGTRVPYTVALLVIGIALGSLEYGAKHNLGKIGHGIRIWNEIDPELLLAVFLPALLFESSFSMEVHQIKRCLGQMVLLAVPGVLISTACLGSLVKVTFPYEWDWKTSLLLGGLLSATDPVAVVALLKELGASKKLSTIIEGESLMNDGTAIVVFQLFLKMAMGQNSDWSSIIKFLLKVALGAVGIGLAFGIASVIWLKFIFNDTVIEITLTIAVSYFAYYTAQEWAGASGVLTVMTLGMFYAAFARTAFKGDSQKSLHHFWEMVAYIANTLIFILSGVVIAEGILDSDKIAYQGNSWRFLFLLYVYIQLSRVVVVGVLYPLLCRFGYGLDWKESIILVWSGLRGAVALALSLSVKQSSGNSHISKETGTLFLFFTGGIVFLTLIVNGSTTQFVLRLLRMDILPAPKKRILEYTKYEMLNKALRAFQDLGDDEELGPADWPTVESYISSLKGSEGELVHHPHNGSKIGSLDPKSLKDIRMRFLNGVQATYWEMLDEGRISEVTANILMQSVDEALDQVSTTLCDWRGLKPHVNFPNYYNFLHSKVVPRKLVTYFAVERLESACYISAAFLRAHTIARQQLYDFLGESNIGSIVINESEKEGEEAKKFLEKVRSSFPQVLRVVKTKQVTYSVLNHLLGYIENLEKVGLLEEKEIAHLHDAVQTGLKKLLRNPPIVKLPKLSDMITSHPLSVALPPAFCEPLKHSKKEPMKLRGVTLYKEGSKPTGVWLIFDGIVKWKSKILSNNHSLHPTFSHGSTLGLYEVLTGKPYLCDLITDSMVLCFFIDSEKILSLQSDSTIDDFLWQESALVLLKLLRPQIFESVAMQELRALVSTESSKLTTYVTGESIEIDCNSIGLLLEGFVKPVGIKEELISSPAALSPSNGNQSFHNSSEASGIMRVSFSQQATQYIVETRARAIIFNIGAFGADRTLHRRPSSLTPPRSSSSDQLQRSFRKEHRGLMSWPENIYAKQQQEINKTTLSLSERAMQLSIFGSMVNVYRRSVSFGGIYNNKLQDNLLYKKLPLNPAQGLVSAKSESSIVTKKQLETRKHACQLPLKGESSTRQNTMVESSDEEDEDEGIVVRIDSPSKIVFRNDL

B1: T/DSOS2 (SOS2 protein kinase with the Thr168-to-Asp change in the activation loop) (protein)
chain: MTKKMRRVGKYEVGRTIGEGTFAKVKFARNTDTGDNVAIKIMAKSTILKNRMVDQIKREISIMKIVRHPNIVRLYEVLASPSKIYIVLEFVTGGELFDRIVHKGRLEESESRKYFQQLVDAVAHCHCKGVYHRDLKPENLLLDTNGNLKVSDFGLSALPQEGVELLRDTCGTPNYVAPEVLSGQGYDGSAADIWSCGVILFVILAGYLPFSETDLPGLYRKINAAEFSCPPWFSAEVKFLIHRILDPNPKTRIQIQGIKKDPWFRLNYVPIRAREEEEVNLDDIRAVFDGIEGSYVAENVERNDEGPLMMNAFEMITLSQGLNLSALFDRRQDFVKRQTRFVSRREPSEIIANIEAVANSMGFKSHTRNFKTRLEGLSSIKAGQLAVVIEIYEVAPSLFMVDVRKAAGETLEYHKFYKKLCSKLENIIWRATEGIPKSEILRTITF
How did the “plasma membrane Na+/H+-exchange activity, maximum stimulation relative to activity without added protein (100 mM NaCl)” value turn out when B1 was run?
The value was “A maximum stimulation of activity of 40% relative to activity without added protein”.
